Assay results as given in patent publication US20230303667A1.

B1: 2.10.1E06 (antibody, V domains shown)
VH: EVQLVESGGGLIQPGGSLRLSCTASGFTFSKFAMSWVRQAPGRGLEWISYISGGSKTKYYADSVRGRFTISRDNAKGSLFLQMNSLRAEDTAIYFCAKKGWQSTFLGMDYFYGMDVWGKGTTVTVSS
VL: EIVLTQSPGTLSLSPGERATLSCRASQSVTSNYLAWYQQKPGQAPRVLIYGASSRATGIPDRFSGSGSGTDFTLTISRLEPEDFAVYYCQQFGASPPYSFGQGTKVEIK
B2: 5.1.13G03 (antibody, V domains shown)
VH: QVQLQESGPGLVKPSGTLSLTCAVSGGSISSTNWWSWVRQPPGKGLEWIGEIYHSGSTNYNPSLKSRVTISLDKSKDQFSLKLSSVTAADTAVYYCAYSNTWTGGWGQGTLVTVSS
VL: DIQMTQSPSSLSASVGDRVTITCRASQSISSYLNWYQQKPGKAPKVLIYSAFSLQNGVPSRFSGSGSGTDFTLTISSLQPEDFATYYCQQSYSTPRTFGQGTKVEIK
B3: 5.6.c2618 (antibody, V domains shown)
VH: QVQLVQSGAEVKKPGASVNLSCKGSGYSFRTYYIHWVRQAPGQGLEWMGIINSSGGGTTYAQKFQGRVTMTRDTSTSTVYMELRSLKYEDTAMYYCARDRFPTVSGEPFAMDVWGQGTTVTVSS
VL: EVVLTQSPVTLSLSPGERATLSCRASQSVSGYLAWYQQKPGQVPRLLIYDTSNRATGIPARFSGSGSGTDFTLTISTIEPEDFAVYYCQQRSKWGVTFGGGTKVDIK
B4: 9.6.1A09 (antibody, V domains shown)
VH: EVQLVESGGGLVQPGGSLRLSCAASGFTFRSYDMDWFRQSTGKGLEWVSAIGSAGDTYYTDSVKGRFTISRENGKNSLYLQMNSLRAGDTAVYYCARARFGDNVFDLWGRGTLVTVSS
VL: DIVMTQSPDSLAVSLGERASINCKSSQSVLSSSNTKNYLAWYQHKPGQPPKLLIYWASTRESGVPDRFSGSGSGTDFTLTISSLQPEDVAVYYCQQYYGAPYTFGQGTKVEIK
B5: 9.6.3A06 (antibody, V domains shown)
VH: EVQLLESGGGLVKPGGSLRLSCAASGFTFNEYMMNWVRQPPGKGLEWVSSISGTSTYINYADSVKGRFTISRDNAKNSLYLQMNSLRSDDTAMYYCARGSTGGYWGQGTLITVSS
VL: DIVMTQTPLSSAVTLGQPASISCRSSQRLVHSDGNTYLSWLHQRPGQPPRLLIYKVSLRFSGVPDRFSGSGAGTDFTLKISRVEAEDVGIYYCMQATQFPLTFGGGTKVEIK
B6: 5.1.7D03 (antibody, V domains shown)
VH: EVQLVQSGGGLAQPGGSLRLSCAASGFTFRSYDMHWVRQVTGKGLEWVSAIGTAGDTYYTGSVKGRFTISRENDKSSLYLQMSSLRGEDTAVYYCARAAFGSHYFDYWGQGTLVTVSS
VL: EIVLTQSPGTLSLSPGERAALSCRASQSVSGNYFAWYQQKSGQAPRLLISAASSRATGVPDRFSASGSGTDFTLTISRLEPEDSAVYYCQQYGSSPLTFGQGTKVEIK

What follows are binders tested against Ebola Zaire (Kikwit strain) glycoprotein (Ebola Zaire (Kikwit strain)) (UniProt P87666) (assay: cell-based or functional assay).
Chain of Ebola Zaire (Kikwit strain) glycoprotein (Ebola Zaire (Kikwit strain)) (P87666 33-676 limits assumed): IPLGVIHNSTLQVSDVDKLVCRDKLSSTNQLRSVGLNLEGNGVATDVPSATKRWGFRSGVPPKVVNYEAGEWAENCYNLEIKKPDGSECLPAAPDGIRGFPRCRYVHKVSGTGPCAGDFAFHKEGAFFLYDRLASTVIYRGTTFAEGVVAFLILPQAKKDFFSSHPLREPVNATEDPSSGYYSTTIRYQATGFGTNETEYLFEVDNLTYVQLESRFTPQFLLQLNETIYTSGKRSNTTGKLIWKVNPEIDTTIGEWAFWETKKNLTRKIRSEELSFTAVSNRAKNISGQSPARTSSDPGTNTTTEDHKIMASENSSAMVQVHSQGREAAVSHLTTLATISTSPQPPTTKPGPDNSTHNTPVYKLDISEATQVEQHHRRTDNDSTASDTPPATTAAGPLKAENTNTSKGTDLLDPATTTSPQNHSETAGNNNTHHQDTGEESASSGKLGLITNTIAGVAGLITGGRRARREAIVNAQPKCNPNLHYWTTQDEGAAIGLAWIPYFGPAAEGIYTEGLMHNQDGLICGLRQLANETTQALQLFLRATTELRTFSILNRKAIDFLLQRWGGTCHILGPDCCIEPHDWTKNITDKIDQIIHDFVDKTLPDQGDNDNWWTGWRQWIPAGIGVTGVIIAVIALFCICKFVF

Binder | PRNT50 (ug/ml) for Ebola Zaire (Kikwit strain) [µg/mL]
B1 | 0.781
B2 | 0.0978
B3 | 0.0061
B4 | 0.781
B5 | 0.0488
B6 | 1.57
